One assay has as its target T1, BSA (UniProt P02769 25-607).
T1 construct: Control surface in SPR; also called BSA surface
As to the kind of experiment: SPR, scFv/sdFv flowed over a BSA surface. For orientation: In SPR one partner is held on a chip, and binding of the other changes the refractive index at the surface.

Assay [1] has as its target fibrin (polymerized from purified human fibrinogen with thrombin) (human) (UniProt P02671). Put plainly: SPR, sdFv flowed over thin fibrin layer, Langmuir 1:1 fit.

T1 sequence (P02769 25-607 limits assumed): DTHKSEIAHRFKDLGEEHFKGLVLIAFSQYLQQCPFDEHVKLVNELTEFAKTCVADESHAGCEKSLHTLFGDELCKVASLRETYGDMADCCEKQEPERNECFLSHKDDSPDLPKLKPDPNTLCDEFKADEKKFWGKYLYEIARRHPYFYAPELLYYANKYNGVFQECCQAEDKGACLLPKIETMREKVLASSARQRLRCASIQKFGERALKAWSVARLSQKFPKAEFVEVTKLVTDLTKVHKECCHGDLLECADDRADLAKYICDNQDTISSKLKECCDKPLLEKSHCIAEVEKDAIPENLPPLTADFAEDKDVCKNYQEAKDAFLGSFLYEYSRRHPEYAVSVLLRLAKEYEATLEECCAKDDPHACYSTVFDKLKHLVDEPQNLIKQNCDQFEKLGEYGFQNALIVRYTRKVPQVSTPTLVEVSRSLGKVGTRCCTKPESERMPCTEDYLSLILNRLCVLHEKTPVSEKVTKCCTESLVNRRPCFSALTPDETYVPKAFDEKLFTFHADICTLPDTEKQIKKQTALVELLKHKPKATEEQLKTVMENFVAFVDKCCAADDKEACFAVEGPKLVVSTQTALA

B1: H6 fibrin-specific single domain variable fragment antibody (sdFv) (VHH)
VHH: QVQLLESGGGLVQPGGSLRLSCAASGDRFTHNDMGWVRQAPGKGLEWVSTIPTTDGSTYYADSVKGRFTISRDNSKSTLYLQMNSLRAEDTAVYYCATGYMWKAPAYVKYWGQGTLVTVSS
notes: Human-derived single domain antibody with only the VH of human IgG, from a phagemid library; Produced as soluble sdFv in E. coli HB2151 and purified on protein A; also called clone H6; nanobody
Regarding B1, the binding result with BSA is given as “no binding (tested: not printed)”. For the same molecule, the Kd in assay [1] was found to be 199 nM.

As usually defined, the Kd is the concentration at which binding is half-saturated. The low end stands for a tighter complex, the high end for a looser complex.

The values above are taken from US20160271292A1 (GEORGIA TECH RESEARCH, published 2016).
